What all share (assay): SPR (Biacore), FcγR over captured antibody; binding amount relative to IL6R-BF648/IL6R-L x100
In general terms: SPR reads the build-up and loss of mass on a sensor chip optically.

One assay has as its target T1, human FcγRIa (human, UniProt P12314 16-292, limits assumed).
T1 construct: also called FcyRIa; CD64

A further assay addresses T2, human FcγRIIb (human, UniProt P31994 43-217, limits assumed).
T2 construct: also called FcyRIfb; FcγIIB
T2 sequence: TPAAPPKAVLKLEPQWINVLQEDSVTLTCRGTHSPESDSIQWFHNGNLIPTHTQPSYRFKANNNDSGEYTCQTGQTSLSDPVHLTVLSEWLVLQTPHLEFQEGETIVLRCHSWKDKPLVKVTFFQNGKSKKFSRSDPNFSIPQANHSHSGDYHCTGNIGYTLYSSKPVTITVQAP

In a further assay the target is T3, human FcγRIIIa type V (human, UniProt P08637 17-208, limits assumed).
T3 construct: also called FcyRIIIa; FcγRIIIaV
T3 sequence (P08637 other isoform, or with tags, fused parts or gaps limits assumed): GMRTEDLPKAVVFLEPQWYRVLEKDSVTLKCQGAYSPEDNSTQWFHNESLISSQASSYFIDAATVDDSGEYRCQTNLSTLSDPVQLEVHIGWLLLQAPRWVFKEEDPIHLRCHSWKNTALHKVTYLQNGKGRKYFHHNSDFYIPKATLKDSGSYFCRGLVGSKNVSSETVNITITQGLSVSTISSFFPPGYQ

A further assay addresses T4, human FcγRIIa type H (human, UniProt P12318 36-217).
T4 construct: also called FcyRIIaH; FcγRIIa(H)
T4 sequence: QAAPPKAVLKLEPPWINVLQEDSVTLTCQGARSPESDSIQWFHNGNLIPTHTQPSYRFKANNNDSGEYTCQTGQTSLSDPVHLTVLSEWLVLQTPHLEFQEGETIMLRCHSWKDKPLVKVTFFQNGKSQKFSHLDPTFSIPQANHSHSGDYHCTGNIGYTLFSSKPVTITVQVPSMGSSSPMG

T1 sequence (P12314 16-292 limits assumed): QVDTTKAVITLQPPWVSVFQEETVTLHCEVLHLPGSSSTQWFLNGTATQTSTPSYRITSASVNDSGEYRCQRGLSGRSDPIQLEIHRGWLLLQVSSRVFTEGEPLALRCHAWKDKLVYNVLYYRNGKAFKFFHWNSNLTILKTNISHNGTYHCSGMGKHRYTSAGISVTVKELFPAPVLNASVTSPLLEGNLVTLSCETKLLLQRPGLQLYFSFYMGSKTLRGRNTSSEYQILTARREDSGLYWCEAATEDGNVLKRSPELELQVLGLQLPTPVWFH

B1: IL6R-BP116/IL6R-L (antibody, human IgG1, name in EU numbering)
heavy: QVQLQESGPGLVKPSETLSLTCAVSGHSISHDHAWSWVRQPPGEGLEWIGFISYSGITNYNPSLQGRVTISRDNSKNTLYLQMNSLRAEDTAVYYCARSLARTTAMDYWGEGTLVTVSSASTKGPSVFPLAPSSKSTSGGTAALGCLVKDYFPEPVTVSWNSGALTSGVHTFPAVLQSSGLYSLSSVVTVPSSSLGTQTYICNVNHKPSNTKVDKKVEPKSCDKTHTCPPCPAPELLGGDSVFLFPPKPKDTLMISRTPEVTCVVVDVSHEDPEVKFNWYVDGVEVHNAKTKPREEQYNSTYRVVSVLTVLHQDWLNGKEYKCKVSNTALPAPIEKTISKAKGQPREPQVYTLPPSRDELTKNQVSLTCLVKGFYPSDIAVEWESNGQPENNYKTTPPVLDSDGSFFLYSKLTVDKSRWQQGNVFSCSVMHEALHNHYTQESLSLSP
light: DIQMTQSPSSLSASVGDRVTITCRASQDISSYLNWYQQKPGKAPKLLIYYTSRLHSGVPSRFSGSGSGTDFTFTISSLQPEDIATYYCQQGNTLPYTFGQGTKVEIK
Regarding B1, the relative binding with human FcγRIa is 110 % of IL6R-BF648/IL6R-L; with human FcγRIIb, 108 % of IL6R-BF648/IL6R-L; with human FcγRIIIa type V, 114 % of IL6R-BF648/IL6R-L; with human FcγRIIa type H, 110 % of IL6R-BF648/IL6R-L.

B2: IL6R-BP119/IL6R-L (antibody, human IgG1, name in EU numbering)
heavy: QVQLQESGPGLVKPSETLSLTCAVSGHSISHDHAWSWVRQPPGEGLEWIGFISYSGITNYNPSLQGRVTISRDNSKNTLYLQMNSLRAEDTAVYYCARSLARTTAMDYWGEGTLVTVSSASTKGPSVFPLAPSSKSTSGGTAALGCLVKDYFPEPVTVSWNSGALTSGVHTFPAVLQSSGLYSLSSVVTVPSSSLGTQTYICNVNHKPSNTKVDKKVEPKSCDKTHTCPPCPAPELLGGDSVFLFPPKPKDTLMISRTPEVTCVVVDVSHEDPEVKFNWYVDGVEVHNAKTKPREEQYNSTYRVVSVLTVLHQDWLNGKEYKCKVSNMALPAPIEKTISKAKGQPREPQVYTLPPSRDELTKNQVSLTCLVKGFYPSDIAVEWESNGQPENNYKTTPPVLDSDGSFFLYSKLTVDKSRWQQGNVFSCSVMHEALHNHYTQESLSLSP
light: DIQMTQSPSSLSASVGDRVTITCRASQDISSYLNWYQQKPGKAPKLLIYYTSRLHSGVPSRFSGSGSGTDFTFTISSLQPEDIATYYCQQGNTLPYTFGQGTKVEIK
For B2, the relative binding in the assay with human FcγRIa was 117 % of IL6R-BF648/IL6R-L; in the assay with human FcγRIIb, 110 % of IL6R-BF648/IL6R-L; with human FcγRIIIa type V, 145 % of IL6R-BF648/IL6R-L; with human FcγRIIa type H, 133 % of IL6R-BF648/IL6R-L.

B3: IL6R-BP121/IL6R-L (antibody, human IgG1, name in EU numbering)
heavy: QVQLQESGPGLVKPSETLSLTCAVSGHSISHDHAWSWVRQPPGEGLEWIGFISYSGITNYNPSLQGRVTISRDNSKNTLYLQMNSLRAEDTAVYYCARSLARTTAMDYWGEGTLVTVSSASTKGPSVFPLAPSSKSTSGGTAALGCLVKDYFPEPVTVSWNSGALTSGVHTFPAVLQSSGLYSLSSVVTVPSSSLGTQTYICNVNHKPSNTKVDKKVEPKSCDKTHTCPPCPAPELLGGDSVFLFPPKPKDTLMISRTPEVTCVVVDVSHEDPEVKFNWYVDGVEVHNAKTKPREEQYNSTYRVVSVLTVLHQDWLNGKEYKCKVSNQALPAPIEKTISKAKGQPREPQVYTLPPSRDELTKNQVSLTCLVKGFYPSDIAVEWESNGQPENNYKTTPPVLDSDGSFFLYSKLTVDKSRWQQGNVFSCSVMHEALHNHYTQESLSLSP
light: DIQMTQSPSSLSASVGDRVTITCRASQDISSYLNWYQQKPGKAPKLLIYYTSRLHSGVPSRFSGSGSGTDFTFTISSLQPEDIATYYCQQGNTLPYTFGQGTKVEIK
As to B3, the relative binding is 118 % of IL6R-BF648/IL6R-L in the assay with human FcγRIa, 113 % of IL6R-BF648/IL6R-L in the assay with human FcγRIIb, 157 % of IL6R-BF648/IL6R-L with human FcγRIIIa type V and 135 % of IL6R-BF648/IL6R-L in the assay with human FcγRIIa type H.

B4: IL6R-BP142/IL6R-L (antibody, human IgG1, name in EU numbering)
heavy: QVQLQESGPGLVKPSETLSLTCAVSGHSISHDHAWSWVRQPPGEGLEWIGFISYSGITNYNPSLQGRVTISRDNSKNTLYLQMNSLRAEDTAVYYCARSLARTTAMDYWGEGTLVTVSSASTKGPSVFPLAPSSKSTSGGTAALGCLVKDYFPEPVTVSWNSGALTSGVHTFPAVLQSSGLYSLSSVVTVPSSSLGTQTYICNVNHKPSNTKVDKKVEPKSCDKTHTCPPCPAPELLGGDSVFLFPPKPKDTLMISRTPEVTCVVVDVSHEDPEVKFNWYVDGVEVHNAKTKPREEQYNSTYRVVSVLTVLHQDWLNGKEYKCKVSNNALPAPIEKTISKAKGQPREPQVYTLPPSRDELTKNQVSLTCLVKGFYPSDIAVEWESNGQPENNYKTTPPVLDSDGSFFLYSKLTVDKSRWQQGNVFSCSVMHEALHNHYTQESLSLSP
light: DIQMTQSPSSLSASVGDRVTITCRASQDISSYLNWYQQKPGKAPKLLIYYTSRLHSGVPSRFSGSGSGTDFTFTISSLQPEDIATYYCQQGNTLPYTFGQGTKVEIK
Take B4: the relative binding was 98 % of IL6R-BF648/IL6R-L with human FcγRIa, 106 % of IL6R-BF648/IL6R-L in the assay with human FcγRIIb, 102 % of IL6R-BF648/IL6R-L with human FcγRIIIa type V and 97 % of IL6R-BF648/IL6R-L with human FcγRIIa type H.

B5: IL6R-BP136/IL6R-L (antibody, human IgG1, name in EU numbering)
heavy: QVQLQESGPGLVKPSETLSLTCAVSGHSISHDHAWSWVRQPPGEGLEWIGFISYSGITNYNPSLQGRVTISRDNSKNTLYLQMNSLRAEDTAVYYCARSLARTTAMDYWGEGTLVTVSSASTKGPSVFPLAPSSKSTSGGTAALGCLVKDYFPEPVTVSWNSGALTSGVHTFPAVLQSSGLYSLSSVVTVPSSSLGTQTYICNVNHKPSNTKVDKKVEPKSCDKTHTCPPCPAPELLGGDSVFLFPPKPKDTLMISRTPEVTCVVVDVSHEDPEVKFNWYVDGVEVHNAKTKPREEQYNSTYRVVSVLTVLHQDWLNGKEYKCKVSNAALPAPIEKTISKAKGQPREPQVYTLPPSRDELTKNQVSLTCLVKGFYPSDIAVEWESNGQPENNYKTTPPVLDSDGSFFLYSKLTVDKSRWQQGNVFSCSVMHEALHNHYTQESLSLSP
light: DIQMTQSPSSLSASVGDRVTITCRASQDISSYLNWYQQKPGKAPKLLIYYTSRLHSGVPSRFSGSGSGTDFTFTISSLQPEDIATYYCQQGNTLPYTFGQGTKVEIK
B5: the relative binding with human FcγRIa was 117 % of IL6R-BF648/IL6R-L; with human FcγRIIb it was 119 % of IL6R-BF648/IL6R-L; with human FcγRIIIa type V, 102 % of IL6R-BF648/IL6R-L; in the assay with human FcγRIIa type H it was 103 % of IL6R-BF648/IL6R-L.

B6: IL6R-BP118/IL6R-L (antibody, human IgG1, name in EU numbering)
heavy: QVQLQESGPGLVKPSETLSLTCAVSGHSISHDHAWSWVRQPPGEGLEWIGFISYSGITNYNPSLQGRVTISRDNSKNTLYLQMNSLRAEDTAVYYCARSLARTTAMDYWGEGTLVTVSSASTKGPSVFPLAPSSKSTSGGTAALGCLVKDYFPEPVTVSWNSGALTSGVHTFPAVLQSSGLYSLSSVVTVPSSSLGTQTYICNVNHKPSNTKVDKKVEPKSCDKTHTCPPCPAPELLGGDSVFLFPPKPKDTLMISRTPEVTCVVVDVSHEDPEVKFNWYVDGVEVHNAKTKPREEQYNSTYRVVSVLTVLHQDWLNGKEYKCKVSNSALPAPIEKTISKAKGQPREPQVYTLPPSRDELTKNQVSLTCLVKGFYPSDIAVEWESNGQPENNYKTTPPVLDSDGSFFLYSKLTVDKSRWQQGNVFSCSVMHEALHNHYTQESLSLSP
light: DIQMTQSPSSLSASVGDRVTITCRASQDISSYLNWYQQKPGKAPKLLIYYTSRLHSGVPSRFSGSGSGTDFTFTISSLQPEDIATYYCQQGNTLPYTFGQGTKVEIK
With B6, the relative binding with human FcγRIa was 101 % of IL6R-BF648/IL6R-L; in the assay with human FcγRIIb, 104 % of IL6R-BF648/IL6R-L; with human FcγRIIIa type V it was 144 % of IL6R-BF648/IL6R-L; in the assay with human FcγRIIa type H, 128 % of IL6R-BF648/IL6R-L.

Values taken from patent US20230257470A1 (published 2023).
